Source: PMC2581521 (Developmental cell, 2008)

T1: Xenopus Chordin-Myc (Xenopus, UniProt Q91713 20-941)
T1 sequence (looked up): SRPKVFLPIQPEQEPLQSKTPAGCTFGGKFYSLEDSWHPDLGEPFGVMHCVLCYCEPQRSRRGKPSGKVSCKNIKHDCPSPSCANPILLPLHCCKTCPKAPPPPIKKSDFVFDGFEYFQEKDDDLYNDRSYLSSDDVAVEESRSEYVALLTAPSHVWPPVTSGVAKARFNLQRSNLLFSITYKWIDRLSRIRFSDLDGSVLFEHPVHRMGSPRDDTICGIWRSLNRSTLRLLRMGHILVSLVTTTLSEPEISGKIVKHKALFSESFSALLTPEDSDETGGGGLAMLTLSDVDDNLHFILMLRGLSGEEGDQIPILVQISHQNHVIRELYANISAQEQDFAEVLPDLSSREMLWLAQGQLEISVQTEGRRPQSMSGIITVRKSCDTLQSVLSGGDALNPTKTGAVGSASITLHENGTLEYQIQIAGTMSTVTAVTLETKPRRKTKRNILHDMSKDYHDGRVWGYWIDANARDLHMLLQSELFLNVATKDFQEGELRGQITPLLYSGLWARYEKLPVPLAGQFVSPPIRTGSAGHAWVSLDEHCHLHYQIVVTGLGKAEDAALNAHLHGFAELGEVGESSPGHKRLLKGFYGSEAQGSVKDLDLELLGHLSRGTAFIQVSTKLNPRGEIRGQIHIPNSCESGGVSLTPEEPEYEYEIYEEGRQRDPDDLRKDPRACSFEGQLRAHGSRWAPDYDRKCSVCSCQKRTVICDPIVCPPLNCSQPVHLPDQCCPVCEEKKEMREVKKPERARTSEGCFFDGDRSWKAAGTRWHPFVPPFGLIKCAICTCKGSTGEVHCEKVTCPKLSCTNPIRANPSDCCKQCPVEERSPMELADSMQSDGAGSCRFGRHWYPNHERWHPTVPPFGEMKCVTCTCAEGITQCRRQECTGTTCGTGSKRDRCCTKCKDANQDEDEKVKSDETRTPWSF

B1: Bone Morphogenetic Protein 4 (recombinant human BMP4) (ligand, UniProt P12644 293-408, looked up)
chain: SPKHHSQRARKKNKNCRRHSLYVDFSDVGWNDWIVAPPGYQAFYCHGDCPFPLADHLNSTNHAIVQTLVNSVNSSIPKACCVPTELSAISMLYLDEYDKVVLKNYQEMVVEGCGCR
B2: Crossveinless-2 (recombinant mouse CV2) (natural protein)
chain: not shown
B3: Twisted gastrulation (recombinant mouse Tsg) (natural protein, UniProt Q9EP52 25-222, looked up)
chain: CNKALCASDVSKCLIQELCQCRPGEGNCPCCKECMLCLGALWDECCDCVGMCNPRNYSDTPPTSKSTVEELHEPIPSLFRALTEGDTQLNWNIVSFPVAEELSHHENLVSFLETVNQLHHQNVSVPSNNVHAPFPSDKERMCTVVYFDDCMSIHQCKISCESMGASKYRWFHNACCECIGPECIDYGSKTVKCMNCMF

Key:
[1] = molecular target: B3; test: cross-linking
Xenopus Chordin-Myc = molecular target: T1, Xenopus Chordin-Myc; test: cross-linking
[2] = molecular target: B2; test: co-IP

Q: What does the source list for B1?
A: binding result [1]: binds; binding result (Xenopus Chordin-Myc): binds

Q: Does B2 bind (Xenopus Chordin-Myc)?
A: binds

Q: Does B3 bind [2]?
A: binds
